Laboratory results taken from patent US10894811B2, “Peptide inhibitors of calcium channels” (The University of North Carolina at Chapel Hill, priority 2016, dated 2021).
“Also recorded” adds a separate entry of the source.

How the values were obtained:
[1] = system: myosin light chain (MLC) phosphorylation; assay: Immunoblot of phosphorylated myosin light chain in ASMCs; assay type: cell-based, human; conditions: basal and Ach-induced; pre-treatment with SPLUNC1
Method: Antibodies, immunoprecipitation, and immunoblot analysis: Rabbit anti-Orai1, anti-HA epitope (Santa Cruz), anti-GFP, anti-phospho-myosin light chain, anti-total myosin light chain, anti-GAPDH (glyceraldehyde-3-phosphate dehydrogenase) (Cell Signaling Technology); mouse anti-V5 epitope (Life Technologies), were purchased from commercial sources. To detect protein expression in total cell lysates, cells were lysed in Pierce® IP lysis buffer with 25 mM Tris-HCl pH 7.4, 150 mM NaCl, 1% NP-40, 1 mM EDTA, 5% glycerol, followed by SDS-polyacrylamide electrophoresis and immunoblot.

Human ASMCs = assay: Cell contraction assay (collagen gel); assay type: cell-based; conditions: pre-incubation with recombinant SPLUNC1; with or without Ach; 60 min
Method: Cell contraction assay: The cell contraction assay was performed using a standard commercially available kit (Cell Biolabs). Human ASMCs were harvested and re-suspended in DMEM, two parts of cells were mixed with eight parts of collagen gel lattice mixture and plated for 1 h at 37° C. After the gel solidified, 1 ml of medium was added and incubated for 48 h. Next the gels were released from the sides of wells, and the images were taken using a ChemiDoc™ MP imager (BioRad) at 0 and 1 h after adding indicated reagents. The changes of collagen gel surface areas were analyzed using ImageJ software and normalized to areas of gels at 0 time point.

hASMCs = assay: Calcium imaging using fura-2 (thapsigargin-induced Ca2+ signaling); assay type: cell-based, human
Method: Calcium imaging: Calcium imaging using fura-2 was adapted from a previous published protocol with minor modifications (Sheridan et al., J. Biol. Chem. 288:33509 (2013)). Briefly, hASMCs were loaded with 2 μM fura-2 AM (Invitrogen) and serosal media from HBEC cultures or recombinant SPLUNC1 at 37° C. for 1 h. Cultures were washed with a standard Ringer's solution (101 mM NaCl, 12 mM NaHCO3, 1.2 mM MgCl2, 1.2 mM CaCl2, […], 24 mM HEPES, 10 mM glucose, pH 7.4) or with Ca^2+-free Ringer's solution as indicated. Cultures were then placed in the Ringer's solution, and images were collected with a 40×1.4 NA oil objective on a Nikon Ti-S inverted microscope. Fura-2 fluorescence was acquired alternately at 340 and 380 nm (emission >450 nm) using LUDL filter wheels, obtained with an Orca FLASH 4.0 CMOS camera (Hammamatsu), and controlled with HCImageLive software. Cell bodies were identified as individual regions of interest (ROIs). Background subtraction was performed using a region without the cell. Signals were converted to relative changes (F/F0) where F0 was the ratio of the average fluorescent intensity (340/380) of ROIs at 0 time point. A total of 20 cells/coverslip were recorded. ΔF/F0 represents average peak fluorescent intensity changes of three independent experiments.

Orai1 = Orai1 (Homo sapiens, UniProt Q96D31); assay: Co-immunoprecipitation in HEK293T cell lysates (V5-SPLUNC1 / HA-Orai1); assay type: binding; set-up: expressed in transfected cells; host or cells: HEK293T; conditions: HEK293T cells cotransfected with V5-SPLUNC1 and HA-Orai1
Method: DNA constructs: Yellow fluorescent protein (YFP) tagged human Orai1 and Myc tagged TRPC3 were gifts from Dr. Craig Montell (Addgene plasmid #25902) and Dr. Anjana Rao (Addgene plasmid #19756), respectively. HA tagged human Orai1 was a generous gift from Dr. Patrick G Hogan at La Jolla Institute for Allergy & Immunology. pcDNA3.1(+)-V5-SPLUNC1 was a generous gift from Dr. Colin D Bingle at the University of Sheffield.
For immunoprecipitation, cell lysates were collected at 48 h post-transfection in Pierce® IP lysis buffer in the presence of 1× protease inhibitor cocktail (PIC) (Roche). Cell lysates were pre-cleared with protein A/G agarose beads and then incubated with 1 μg of antibodies against HA (BioLegend) or V5 (Invitrogen) with protein A/G agarose beads on a rotator at 4° C. overnight. After three washes with IP lysis buffer, immunoprecipitated complexes were eluted in sample buffer (50 mM Tris-HCl [pH 6.8], 2% sodium dodecyl sulfate (SDS), 10% glycerol, 5% (v/v) β-mercaptoethanol (BME), 0.1% bromophenol blue) by heating the samples at 95° C. for 5 min, electrophoresed through SDS-polyacrylamide gels, and subjected to immunoblot analysis.

ASMC plasma membranes = assay: SPLUNC1 binding to ASMCs after Orai1 shRNA (surface biotinylation, fluorescent SPLUNC1 binding assay); set-up: species or system human; conditions: Orai1 shRNA knockdown vs scrambled control, 72 h post transfection
Method: Short hairpin RNA (shRNA) plasmid against Orai1 and scrambled control shRNA plasmid were purchased from Sigma Aldrich and published previously (Sheridan et al., J. Biol. Chem. 288:33509 (2013)). Transfections of all plasmid DNA and shRNA were performed using Lipofectamine 2000 reagent (Life Technologies) according to the manufacturer's instructions.
Fluorescent SPLUNC1 binding assay: Human ASMCs were transfected with scrambled control shRNA and Orai1 shRNA respectively. 72 h post transfection, cells were treated with or without SPLUNC1-DyLight 633 for 1 h, then washed for 5 times with ice-cold Ringer's solution. ASMC-bounded SPLUNC1-Dylight 633 was detected by fluorescent plate reader (Tecan). Cells were also stained with calcein AM (Life Technologies) as cell number control. Relative fluorescent intensity was calculated by normalizing fluorescent intensity at 658 nm to 526 nm.
Surface biotinylation: hASMCs were treated with or without SPLUNC1 for 4 h. Cells were then washed with prechilled PBS^++ (phosphate buffered saline supplemented with 1 mM CaCl2 and 1 mM MgCl2), and then labeled with 0.5 mg/ml sulfo-NHS-biotin (Thermo) in borate buffer (85 mM NaCl, 4 mM KCl, 15 mM Na2B4O7, pH 9.0) while tumbling gently for 30 min on ice. hASMCs were incubated in PBS^++ buffer supplemented with 10% FBS for 20 min at 4° C. to quench free biotin. […]

Orai1, sequence (Q96D31 whole entry): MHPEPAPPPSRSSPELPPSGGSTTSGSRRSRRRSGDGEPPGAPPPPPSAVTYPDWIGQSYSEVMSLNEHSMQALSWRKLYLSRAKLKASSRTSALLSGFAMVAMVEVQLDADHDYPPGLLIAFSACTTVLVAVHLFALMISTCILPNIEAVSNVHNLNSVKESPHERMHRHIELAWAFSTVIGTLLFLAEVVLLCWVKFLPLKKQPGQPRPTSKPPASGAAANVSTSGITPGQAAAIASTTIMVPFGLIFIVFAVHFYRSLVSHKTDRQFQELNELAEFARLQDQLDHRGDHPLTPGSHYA

B1: SPLUNC1: Short palate, lung and nasal epithelium clone 1, recombinant full length protein (protein, listed as Homo sapiens)
chain: MFQTGGLIVFYGLLAQTMAQFGGLPVPLDQTLPLNVNPALPLSPTGLAGSLTNALSNGLLSGGLLGILENLPLLDILKPGGGTSGGLLGGLLGKVTSVIPGLNNIIDIKVTDPQLLELGLVQSPDGHRLYVTIPLGIKLQVNTPLVGASLLRLAVKLDITAEILAVRDKQERIHLVLGDCTHSPGSLQISLLDGLGPLPIQGLLDSLTGILNKVLPELVQGNVCPLVNEVLRGLDITLVHDIVNMLIHGLQFVIKV
- MLC phosphorylation [1]: decreased both basal and induced MLC phosphorylation; also recorded: suppressing myosin light chain (MLC) phosphorylation; also recorded: decreases MLC phosphorylation in dose dependent-manners
- ASMC contraction in collagen matrix (decrease in gel surface area) (Human ASMCs): significantly reduced; also recorded: decreases airway smooth muscle (ASM) contractility
- ability of SPLUNC1 to inhibit Ca2+ signaling (hASMCs; ASMC with Orai1 knocked down by shRNA, TG): lost
- ability to suppress Ca2+ signaling, SPLUNC1 mutants/peptides (hASMCs; ASMCs pre-incubated with truncated SPLUNC1 peptides (FIG. 4H)): Inhibition was not different
- SR Ca2+ release (hASMCs; TG without extracellular Ca2+ (EGTA), pre-treatment with SPLUNC1): no effect
- thapsigargin (TG)-induced Ca2+ flux (peak fura-2 ratio change) (hASMCs; human ASMCs, co-incubated 1 h): significantly reduced; also recorded: inhibits TG induced cytosolic Ca^2+ increases in a dose-dependent manner; also recorded: suppresses cytosolic Ca^2+ elevation in the presence of TG
- SOCE (store operated Ca2+ influx) (hASMCs; reintroduction of extracellular Ca2+ after TG, pre-treatment with SPLUNC1): significantly suppressed; also recorded: blocks store operated Ca^2+ influx in ASMCs
- co-immunoprecipitation with Orai1 (Orai1): could be co-immunoprecipitated; also recorded: interacting with Orai1
- SPLUNC1 binding to ASMC plasma membranes (ASMC plasma membranes): decreased; also recorded: decreases SPLUNC1 binding to the ASMC membrane; also recorded: decreases fluorescent SPLUNC1 binding to ASMCs
